The text below walks through data of PMC3029386, “Determinants Outside the DevR C-Terminal Domain Are Essential for Cooperativity and Robust Activation of Dormancy Genes in Mycobacterium tuberculosis”.

Series [1] concerns the target DevRC (DevR C-terminal domain) (Mycobacterium tuberculosis H37Rv, UniProt P9WMF9 141-217). Kind of series: EMSA. The note with it: protein: recombinant; tags: N-terminal His6 (pET28a, pUS-DevRC); chain copies: 2.
In the next series the target is DevR (full-length) (Mycobacterium tuberculosis, UniProt P9WMF9 1-217). Kind of series: EMSA. The following applies: protein: recombinant; tags: N-terminal His6 (pAV-DevR); chain copies: 2. (In general: A gel shift assay detects complexes by their altered migration in electrophoresis.)
DevR (full-length), sequence (P9WMF9 whole entry): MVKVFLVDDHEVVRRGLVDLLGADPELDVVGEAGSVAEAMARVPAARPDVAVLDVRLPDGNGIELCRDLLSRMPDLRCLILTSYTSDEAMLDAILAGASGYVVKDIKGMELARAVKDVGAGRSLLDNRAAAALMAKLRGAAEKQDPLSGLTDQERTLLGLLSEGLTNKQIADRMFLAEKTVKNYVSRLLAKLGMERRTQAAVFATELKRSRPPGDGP

DevRC (DevR C-terminal domain), sequence (P9WMF9 141-217): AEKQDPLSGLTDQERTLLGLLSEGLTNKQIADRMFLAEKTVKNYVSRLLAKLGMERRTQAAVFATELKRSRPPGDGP

B1: P+S box (LH1/LH2), tgs1-Rv3131 promoter (dsDNA)
DNA 1: CGAGTCGACAGAGCACGAAGGCTCGCCAGCGGAGGACCTTTGGCCCTGCGTCGACCGA
DNA 2: TCGGTCGACGCAGGGCCAAAGGTCCTCCGCTGGCGAGCCTTCGTGCTCTGGTCGACTCG
For B1, the binding result (in series [1]; with DevR (full-length)) was “binds” each time.
